Data from patent US20200223906A1 (Adimab, published 2020).
Residue numbers refer to the chain shown, from its start.

B1: ADI-18960 (antibody, V domains shown)
VH: QVQLQESGPGLVKPSETLSLTCSVSGGSITNVNYYWGWIRQPPGKGLEWIGSIYYNGNTYYNPSLQSRVTMSVDTSKNHFSLRLTSVTAADTAVYFCAREGPNWELLNAFDIWGQGTTVTVSS
VL: DIQVTQPPSVSVAPGQTARITCGGNNIGSKNVHWYQQKPGRAPVLVVYEDTHRPSGIPERFSGSNSGNTATLTISRVEAGDEADYYCQVWDTSSDHVVFGGGTKLTVL
notes: full-length IgG from yeast; also called Antibody Number 311; Ab # 311
B2: ADI-18966 (antibody, V domains shown)
VH: QVQLVQSGGGVVQPGRSLRLSCAASGFTFRNYGMHWVRQAPGKGLEWVAAASYDGSSKYFADAVKGRFSISRDNTKNTLSLQMTSLRAEDTAVYYCARDPGVGSYYNVVGMDVWGQGTTVTVSS
VL: DIRLTQSPLSLPVTLGQPASISCRSSQSLVYSDGNTYLNWFQQRPGQSPRRLIYRVSHRDSGVPDRFSGSESGTDFTLKISRVEAEDVGVYYCMQGTHWPPTFGQGTKVEIK
notes: full-length IgG from yeast
B3: ADI-18969 (antibody, V domains shown)
VH: QVQLVQSGPEVKKPGASVTVSCKASGYTFSHYGISWVRQAPGQGLEWMGWISAYHGQTNYAQNFQGRVTMTTDTSSNTAYMEVRSLRSDDTAVYFCARDVFSKTAARIFDYWGQGTLVTVSS
VL: EIVLTQSPLSLPVTLGQPASISCRSSQSLEYSDGNTYLSWFQQRPGQSPRRLIYKVSNRDSGVPDRFSGSQSGTDFTLKISRVEAEDVGVYYCMQATDWPVTFGQGTKLEIK
notes: full-length IgG from yeast; also called Antibody Number 317; Ab # 317
B4: ADI-18971 (antibody, V domains shown)
VH: EVQLVESGGGLVQRGGSLRLSCAASGFTFSGNAMSWVRQAPGKGLEWVASIGESATSAYYADSVKGRFTISRDDSKNTLYLQMNSLRPEDTAVYFCAKDRVGWFGEFDAFDFWGQGTMVTVSS
VL: SYELTQPPSVSVAPGKTATISCGGNNIGGHKVHWYQQRPGQAPVLVIYYDNVRPSGIPERFSGSNSGNTATLTISRVEAGDEADFYCQVWDSRSEHVIFGGGTKVTVL
notes: full-length IgG from yeast; also called Antibody Number 319; Ab # 319
B5: ADI-18974 (antibody, V domains shown)
VH: QVQLVQSGPEVKKPGASVRVSCEASGYPFSNYGITWVRQAPGQGLEWMGWISAYNGNRDYLQKFQGRLTMTIDTSTRTAHMELRRLTSDDTAVYWCARDTPATAAPLLDYWGQGTLVTVSS
VL: DIVMTQSPLSLAVTLGQPASISCRSSQSLEFTDGNTYLNWFQQRPGQSPRRLIYKVSNRDSGVPDRFSGSGSGTGFTLKISRVEAEDVGVYYCMQGIFRPGTFGQGTKVEIK
notes: full-length IgG from yeast
B6: ADI-18975 (antibody, V domains shown)
VH: QVQLVQSGAEVKKPGASVKVSCKASGYTFVHYGISWVRQAPGQGLEWMGWISAYNGNTNSALKFQDRVTMTTDPSTSTAYMELRSLRSDDTAIYYCARDSGCCSGSTSDVWGKGTTVTVSS
VL: DIVMTQSPLSSPVTLGQPASISCRSSQSLVHSDGNTYLSWLHQRPGQPPRLLIYKISHRFSGVPDRFTGSGAGTDFTLKISRVEAEDVGVYYCMQATEFPPMYTFGQGTKVEIK
notes: full-length IgG from yeast; also called Antibody Number 323; Ab # 323
B7: ADI-18977 (antibody, V domains shown)
VH: QVQLVQSGTEVKKPGASVKISCKTSGYTFTNNVIQWVRQAPGQRLEWMGWISAGNGYTKYSDKFQDRVTITRDTSASTAYMEVSSLTSEDTAMYYCARQVSTSGWHATSHRFAPWGQGTLVTVSS
VL: DIQMTQSPSSLSASVGDRVTITCQASQGISRYLNWYQQKPGKAPNLLIYDASNLETGVPSRFSGSGSGTHFTLTISSLQPEDIATYYCQQYDNLPLTFGGGTKVEIK
notes: full-length IgG from yeast
B8: ADI-18889 (antibody, V domains shown)
VH: QVQLQQWGAGLWKPSQTLSLTCAVHGGSLSGYSWSWIRQSPGRGLEWIGEVNRRGTTNYNPSLKGRVSISWDTSKNQVSLSLRSVTAADTATYYCAGTNVGFVNTHNDYYFGMDVWGQGTTVTVSS
VL: DIVMTQSPSSLSASVGDRVTITCRASQSISNYVNWYQKKTGQVPKLLIYGASNLESGVPSRFSGGGSGTDFTLTISSLQPEDFATYYCQQSYSVPLTFGGGTKVEIK
notes: full-length IgG from yeast; also called Antibody Number 244; Ab # 244
B9: ADI-18890 (antibody, V domains shown)
VH: QVQLVQSGAEVKRPGSSVKVSCKASGGTFRGYHISWLRQAPGQGLEWLGGITHLFGTVSYAPKFQGRVTITADASTGTLYMVLNSLKPEDTAIYYCARDAYEVWTGSYLPPFDYWGQGTLVTVSS
VL: ETTLTQSPGTLSLSPGERATLSCRASQTVTSNYLAWYQQKPGQAPRLLIYDALTRATGIPDRFSGSGSGTDFTLTISRLEPEDFALYYCQQYGSSFLTFGGGTKVDIK
notes: full-length IgG from yeast
B10: ADI-18891 (antibody, V domains shown)
VH: B9 VH with V5Q, Q6E, R13K, T28A, R30S, G31S, H33A, L37V
VL: B9 VL with T2I, T3V, V105L, D106E
notes: full-length IgG from yeast; also called Antibody Number 246; Ab # 246
B11: ADI-18892 (antibody, V domains shown)
VH: QVQLVQSGAEVKEPGASVRVSCKASGYTFTSYGISWVRQAPGQGLEWMGWISAYNGNTNYAQKFQGRVTVTTDTSTSAAYMELRSLRSDDTAIYYCARDSFSLTGAGFPDYWGQGTLVTVSS
VL: B3 VL with L4M, E30V, S39N, Q71G, G73D, D98Q, V101R, L109V
notes: full-length IgG from yeast
B12: ADI-18893 (antibody, V domains shown)
VH: EVQLLESGGGLVKPGGSLRLSCVASGFTFSSYNINWVRQAPGKGLEWVSSISGGSNYIDYADSVKGRFTISRDNAKNSLYLQMNNLRAEDTAVYYCARLGYGGNPELDYWGQGTLVTVSS
VL: QSVLTQPPSVSGAPGQRVTISCTGSSSNIGAGYDVHWYQQRPGTAPKLLIYANNNRPSGVPDRFSGSKSGTSASLAITGLQAEDEADYYCQSYDLSLSSSRVFGGGTKLTVL
notes: full-length IgG from yeast; also called Antibody Number 248; Ab # 248
B13: ADI-18877 (antibody, V domains shown)
VH: QVQLVQSGTEVKKPGASVKVSCKAAGYTFSNYGVSWVRQAPGQGLEWMGWISAYNGNTKFAQKVQGRLTMTTDTSTSTAYMELRNLRSDDTAVYYCARESGATAAAMFDYWGQGTLVTVSS
VL: ETTLTQSPLSLPVTLGQPASISCRSSQSLEYSDGNIYLSWFQQRPGQSPRRLIYKVSHRDSGVPDRFSGSGSGTDFTLKIARVEAEDVAVYYCMQAIHWPRTFGQGTKVDIK
notes: full-length IgG from yeast; also called Antibody Number 234; Ab # 234
B14: ADI-18898 (antibody, V domains shown)
VH: B13 VH
VL: B13 VL with T2I, T3V, D110E
notes: full-length IgG from yeast

Target: RSV F protein of subtype A (strain A2) on recombinant mKate-RSV virus (Respiratory syncytial virus subtype A …, UniProt P03420 26-574)
Test: cell-based or functional assay

Binder	Neut IC50 (µg/ml) subtype A [µg/mL]
B1	0.034
B2	0.044
B3	0.035
B4	0.039
B5	0.03
B6	0.037
B7	0.108
B8	0.04
B9	0.041
B10	0.012
B11	0.018
B12	0.123
B13	0.41
B14	0.03

Target: RSV F protein of subtype B (18537) on recombinant mKate-RSV virus (Respiratory syncytial virus subtype B …, UniProt P13843 26-574)
Test: cell-based or functional assay

Binder	Neut IC50 (µg/ml) subtype B [µg/mL]
B1	0.107
B2	0.13
B3	0.187
B4	0.114
B5	0.105
B6	0.174
B7	0.117
B8	0.019
B9	0.041
B10	0.026
B11	0.117
B12	0.182
B13	0.13
B14	0.097

Target: T1, RSV F subtype A, furin-cleaved ectodomain stabilized in the prefusion conformation (DS-Cav1) (Respiratory syncytial virus subtype A, UniProt P03420 26-524)
T1 construct: extracellular domain; Trimeric soluble antigen; also called Prefusion subtype A
Test: BLI, IgG on AHQ sensor, 100 nM antigen

Binder	Kd [nM]
B1	0.178
B2	0.578
B3	0.303
B4	0.157
B5	0.253
B6	0.267
B7	0.786
B8	0.554
B9	0.489
B10	0.534
B11	0.217
B12	0.245
B13	0.303
B14	0.305

Target: T2, RSV F subtype B, furin-cleaved ectodomain stabilized in the prefusion conformation (DS-Cav1) (Respiratory syncytial virus subtype B)
T2 construct: extracellular domain; Trimeric soluble antigen; also called Prefusion subtype B
Test: BLI, IgG on AHQ sensor, 100 nM antigen

Binder	Kd [nM]
B1	0.183
B2	0.562
B3	0.297
B4	0.168
B5	0.29
B6	0.298
B7	0.966
B8	0.587
B9	0.458
B10	0.513
B11	0.253
B12	0.278
B13	0.383
B14	0.325
